Data on eight molecules can be found in paper PMC12527946.

The assay addresses VLDLR(28–797)Δ(751–779)-C-tag (VLDLR ectodomain), P98155-2. In words: ELISA. To be noted: chain shown with the change, VLDLR-ed coated on microtiter plates, background binding to BSA subtracted; for response (Absorbance (450nm)): fitted binding curve read at Clu 1.0 µM, parent: est. 0.48, read off a plot; for Kd: parent: 79.6 nM. Background: In an ELISA, binding on a coated surface is turned into a signal by an enzyme label.

B1: wild-type human clusterin (WT Clu), P10909 Y204S; Y206S; L207S; F209S; L211S; F218S; F219S; F220S (protein)
chain: MMKTLLLFVGLLLTWESGQVLGDQTVSDNELQEMSNQGSKYVNKEIQNAVNGVKQIKTLIEKTNEERKTLLSNLEEAKKKKEDALNETRESETKLKELPGVCNETMMALWEECKPCLKQTCMKFYARVCRSGSGLVGRQLEEFLNQSSPFYFWMNGDRIDSLLENDRQQTHMLDVMQDHFSRASSIIDELFQDRFFTREPQDTSHSSPSSSPHRRPHSSSPKSRIVRSLMPFSPYEPLNFHAMFQPFLEMIHEAQQAMDIHFHSPAFQHPPTEFIREGDDDRTVCREIRHNSTGCLRMKDQCDKCREILSVDCSTNNPSQAKLRRELDESLQVAERLTRKYNELLKSYQWKMLNTSSLLEQLNEQFNWVSRLANLTQGEDQYYLRVTTVASHTSDSDVPSGVTEVVVKLFDSDPITVTVPVEVSRKNPKFMETVAEKALQEYRKKHREE
As to B1, the response (Absorbance (450nm)) came out at 0.16.

B2: wild-type human clusterin (WT Clu), P10909 S161R (protein)
chain 1: DQTVSDNELQEMSNQGSKYVNKEIQNAVNGVKQIKTLIEKTNEERKTLLSNLEEAKKKKEDALNETRESETKLKELPGVCNETMMALWEECKPCLKQTCMKFYARVCRSGSGLVGRQLEEFLNQSSPFYFWMNGDRIDRLLENDRQQTHMLDVMQDHFSRASSIIDELFQDRFFTREPQDTYHYLPFSLPHRRPHFFFPKSRIVR
chain 2: SLMPFSPYEPLNFHAMFQPFLEMIHEAQQAMDIHFHSPAFQHPPTEFIREGDDDRTVCREIRHNSTGCLRMKDQCDKCREILSVDCSTNNPSQAKLRRELDESLQVAERLTRKYNELLKSYQWKMLNTSSLLEQLNEQFNWVSRLANLTQGEDQYYLRVTTVASHTSDSDVPSGVTEVVVKLFDSDPITVTVPVEVSRKNPKFMETVAEKALQEYRKKHREE
Consider B2, for which the Kd (usually the concentration at which binding is half-saturated) (Clu 0-1.0 µM) came out at 376 nM.

B3: wild-type human clusterin (WT Clu), P10909 K123Q; R127Q; R130Q; R138Q; R282Q; R286Q; R289Q (protein)
chain: MMKTLLLFVGLLLTWESGQVLGDQTVSDNELQEMSNQGSKYVNKEIQNAVNGVKQIKTLIEKTNEERKTLLSNLEEAKKKKEDALNETRESETKLKELPGVCNETMMALWEECKPCLKQTCMQFYAQVCQSGSGLVGQQLEEFLNQSSPFYFWMNGDRIDSLLENDRQQTHMLDVMQDHFSRASSIIDELFQDRFFTREPQDTYHYLPFSLPHRRPHFFFPKSRIVRSLMPFSPYEPLNFHAMFQPFLEMIHEAQQAMDIHFHSPAFQHPPTEFIREGDDDQTVCQEIQHNSTGCLRMKDQCDKCREILSVDCSTNNPSQAKLRRELDESLQVAERLTRKYNELLKSYQWKMLNTSSLLEQLNEQFNWVSRLANLTQGEDQYYLRVTTVASHTSDSDVPSGVTEVVVKLFDSDPITVTVPVEVSRKNPKFMETVAEKALQEYRKKHREE
Consider B3, for which the Kd (Clu 0-2.0 µM) came out at 1180 nM.

B4: wild-type human clusterin (WT Clu), P10909 L229S; M230S; F232S; Y235S (protein)
chain: MMKTLLLFVGLLLTWESGQVLGDQTVSDNELQEMSNQGSKYVNKEIQNAVNGVKQIKTLIEKTNEERKTLLSNLEEAKKKKEDALNETRESETKLKELPGVCNETMMALWEECKPCLKQTCMKFYARVCRSGSGLVGRQLEEFLNQSSPFYFWMNGDRIDSLLENDRQQTHMLDVMQDHFSRASSIIDELFQDRFFTREPQDTYHYLPFSLPHRRPHFFFPKSRIVRSSSPSSPSEPLNFHAMFQPFLEMIHEAQQAMDIHFHSPAFQHPPTEFIREGDDDRTVCREIRHNSTGCLRMKDQCDKCREILSVDCSTNNPSQAKLRRELDESLQVAERLTRKYNELLKSYQWKMLNTSSLLEQLNEQFNWVSRLANLTQGEDQYYLRVTTVASHTSDSDVPSGVTEVVVKLFDSDPITVTVPVEVSRKNPKFMETVAEKALQEYRKKHREE
Take B4: under “Clu 0-2.0 µM”, the Kd came out at 989 nM.

B5: wild-type human clusterin (WT Clu), P10909 Y125F; G132E; L135K; R138E; Q139A; E142S (protein)
chain: MMKTLLLFVGLLLTWESGQVLGDQTVSDNELQEMSNQGSKYVNKEIQNAVNGVKQIKTLIEKTNEERKTLLSNLEEAKKKKEDALNETRESETKLKELPGVCNETMMALWEECKPCLKQTCMKFFARVCRSESGKVGEALESFLNQSSPFYFWMNGDRIDSLLENDRQQTHMLDVMQDHFSRASSIIDELFQDRFFTREPQDTYHYLPFSLPHRRPHFFFPKSRIVRSLMPFSPYEPLNFHAMFQPFLEMIHEAQQAMDIHFHSPAFQHPPTEFIREGDDDRTVCREIRHNSTGCLRMKDQCDKCREILSVDCSTNNPSQAKLRRELDESLQVAERLTRKYNELLKSYQWKMLNTSSLLEQLNEQFNWVSRLANLTQGEDQYYLRVTTVASHTSDSDVPSGVTEVVVKLFDSDPITVTVPVEVSRKNPKFMETVAEKALQEYRKKHREE
B5: for the setting “Clu 0-2.0 µM”, the Kd amounted to 1190 nM.

B6: wild-type human clusterin (WT Clu), P10909 Y204S; Y206S; L207S; F209S; L211S; F218S; F219S; F220S; L229S; M230S; F232S; Y235S (protein)
chain: MMKTLLLFVGLLLTWESGQVLGDQTVSDNELQEMSNQGSKYVNKEIQNAVNGVKQIKTLIEKTNEERKTLLSNLEEAKKKKEDALNETRESETKLKELPGVCNETMMALWEECKPCLKQTCMKFYARVCRSGSGLVGRQLEEFLNQSSPFYFWMNGDRIDSLLENDRQQTHMLDVMQDHFSRASSIIDELFQDRFFTREPQDTSHSSPSSSPHRRPHSSSPKSRIVRSSSPSSPSEPLNFHAMFQPFLEMIHEAQQAMDIHFHSPAFQHPPTEFIREGDDDRTVCREIRHNSTGCLRMKDQCDKCREILSVDCSTNNPSQAKLRRELDESLQVAERLTRKYNELLKSYQWKMLNTSSLLEQLNEQFNWVSRLANLTQGEDQYYLRVTTVASHTSDSDVPSGVTEVVVKLFDSDPITVTVPVEVSRKNPKFMETVAEKALQEYRKKHREE
Take B6: the response (Absorbance (450nm)) is 0.055.

B7: wild-type human clusterin (WT Clu), P10909 V369K; A373T; T376K (protein)
chain: MMKTLLLFVGLLLTWESGQVLGDQTVSDNELQEMSNQGSKYVNKEIQNAVNGVKQIKTLIEKTNEERKTLLSNLEEAKKKKEDALNETRESETKLKELPGVCNETMMALWEECKPCLKQTCMKFYARVCRSGSGLVGRQLEEFLNQSSPFYFWMNGDRIDSLLENDRQQTHMLDVMQDHFSRASSIIDELFQDRFFTREPQDTYHYLPFSLPHRRPHFFFPKSRIVRSLMPFSPYEPLNFHAMFQPFLEMIHEAQQAMDIHFHSPAFQHPPTEFIREGDDDRTVCREIRHNSTGCLRMKDQCDKCREILSVDCSTNNPSQAKLRRELDESLQVAERLTRKYNELLKSYQWKMLNTSSLLEQLNEQFNWKSRLTNLKQGEDQYYLRVTTVASHTSDSDVPSGVTEVVVKLFDSDPITVTVPVEVSRKNPKFMETVAEKALQEYRKKHREE
As to B7, the Kd (Clu 0-1.0 µM) came to 109 nM.

B8: wild-type human clusterin (WT Clu), P10909 A108E; L109S; E112K; P115Q; K304A; E307H (protein)
chain: MMKTLLLFVGLLLTWESGQVLGDQTVSDNELQEMSNQGSKYVNKEIQNAVNGVKQIKTLIEKTNEERKTLLSNLEEAKKKKEDALNETRESETKLKELPGVCNETMMESWEKCKQCLKQTCMKFYARVCRSGSGLVGRQLEEFLNQSSPFYFWMNGDRIDSLLENDRQQTHMLDVMQDHFSRASSIIDELFQDRFFTREPQDTYHYLPFSLPHRRPHFFFPKSRIVRSLMPFSPYEPLNFHAMFQPFLEMIHEAQQAMDIHFHSPAFQHPPTEFIREGDDDRTVCREIRHNSTGCLRMKDQCDACRHILSVDCSTNNPSQAKLRRELDESLQVAERLTRKYNELLKSYQWKMLNTSSLLEQLNEQFNWVSRLANLTQGEDQYYLRVTTVASHTSDSDVPSGVTEVVVKLFDSDPITVTVPVEVSRKNPKFMETVAEKALQEYRKKHREE
Take B8: for the setting “Clu 0-1.0 µM”, the Kd came to 137 nM.
